Each block holds one binder with its values, some of them ahead of it.
What was measured:
Assay in all cases: two-hybrid library CCNG1;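 note: natural log of median RNA to DNA barcode read ratio; higher means stronger binding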
P2A-bS = target: T1, P2A-bS
T1 chain: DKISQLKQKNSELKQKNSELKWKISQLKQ

P3A-bS = target: T2, P3A-bS
T2 chain: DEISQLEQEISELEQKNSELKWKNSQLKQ

P4A-bS = target: T3, P4A-bS
T3 chain: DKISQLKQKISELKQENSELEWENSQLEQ

P5A-bS = target: T4, P5A-bS
T4 chain: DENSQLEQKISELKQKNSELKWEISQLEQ

P6A-bS = target: T5, P6A-bS
T5 chain: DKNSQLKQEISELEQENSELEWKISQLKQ

P7A-bS = target: T6, P7A-bS
T6 chain: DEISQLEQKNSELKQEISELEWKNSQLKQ

P8A-bS = target: T7, P8A-bS
T7 chain: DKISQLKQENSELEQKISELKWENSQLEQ

P9A-bS = target: T8, P9A-bS
T8 chain: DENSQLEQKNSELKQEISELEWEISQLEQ

P2A-bP = target: T9, P2A-bP
T9 chain: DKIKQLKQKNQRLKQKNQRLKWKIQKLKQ

P3A-bP = target: T10, P3A-bP
T10 chain: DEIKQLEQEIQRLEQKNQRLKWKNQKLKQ

P4A-bP = target: T11, P4A-bP
T11 chain: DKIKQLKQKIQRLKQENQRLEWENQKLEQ

P5A-bP = target: T12, P5A-bP
T12 chain: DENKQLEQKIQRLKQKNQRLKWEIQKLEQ

P6A-bP = target: T13, P6A-bP
T13 chain: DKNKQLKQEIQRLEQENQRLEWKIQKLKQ

P7A-bP = target: T14, P7A-bP
T14 chain: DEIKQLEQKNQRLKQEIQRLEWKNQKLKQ

P8A-bP = target: T15, P8A-bP
T15 chain: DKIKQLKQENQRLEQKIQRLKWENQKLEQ

P9A-bP = target: T16, P9A-bP
T16 chain: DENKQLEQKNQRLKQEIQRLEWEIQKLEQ

4H2745-bA = target: T17, 4H2745-bA
T17 chain: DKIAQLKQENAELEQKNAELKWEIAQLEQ

4H344-bA = target: T18, 4H344-bA
T18 chain: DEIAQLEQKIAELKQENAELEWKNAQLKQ

4H363-bA = target: T19, 4H363-bA
T19 chain: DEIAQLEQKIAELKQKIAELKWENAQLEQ

4H3907-bA = target: T20, 4H3907-bA
T20 chain: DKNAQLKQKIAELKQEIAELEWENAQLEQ

4H3961-bA = target: T21, 4H3961-bA
T21 chain: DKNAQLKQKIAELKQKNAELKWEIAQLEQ

4H3974-bA = target: T22, 4H3974-bA
T22 chain: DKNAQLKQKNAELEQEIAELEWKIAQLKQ

4H470-bA = target: T23, 4H470-bA
T23 chain: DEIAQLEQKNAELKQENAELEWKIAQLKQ

P1mSN = target: T24, P1mSN
T24 chain: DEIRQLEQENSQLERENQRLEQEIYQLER

interaction score (P2A-bS): -1.36
interaction score (P3A-bS): -0.857
interaction score (P4A-bS): -0.497
interaction score (P5A-bS): -0.924
interaction score (P6A-bS): -1.71
interaction score (P7A-bS): -0.792
interaction score (P8A-bS): -0.742
interaction score (P9A-bS): -0.777
Binder: DKISQLKQKNSELKQKNSELKWKISQLKQ [P2A-bS]

interaction score (P2A-bP): 0.0236
interaction score (P3A-bP): -1.2
interaction score (P4A-bP): -1.81
interaction score (P5A-bP): -1.71
interaction score (P6A-bP): -0.533
interaction score (P7A-bP): -2.54
interaction score (P8A-bP): -0.672
interaction score (P9A-bP): -0.913
Binder: DKIKQLKQKNQRLKQKNQRLKWKIQKLKQ [P2A-bP]

interaction score (4H2745-bA): -0.711
interaction score (4H344-bA): 0.257
interaction score (4H363-bA): -1.18
interaction score (4H3907-bA): -1.14
interaction score (4H3961-bA): -1.18
interaction score (4H3974-bA): 0
interaction score (4H470-bA): 2.34
interaction score (P1mSN): -0.547
Binder: DKIAQLKQENAELEQKNAELKWEIAQLEQ [4H2745-bA]
